Here are results for two molecules from US20220403031A1.

Assay [1] addresses 4-1BB.his (Homo sapiens (Human)) (UniProt Q07011). Nature of the assay: non-specific binding ELISA; antigen coated at 2 ug/mL, antibody at 10 ug/ml.
The target in assay [2] is HER3.his (Homo sapiens (Human)) (UniProt P21860). Described as above.
For another assay, the target named is OX40.his. The assay is described as above.
For assay [3], the target named is PD-1.his (Homo sapiens (Human)) (UniProt Q15116). The assay is described as above.
Chain of PD-1.his (Homo sapiens (Human)) (Q15116 25-170 limits assumed): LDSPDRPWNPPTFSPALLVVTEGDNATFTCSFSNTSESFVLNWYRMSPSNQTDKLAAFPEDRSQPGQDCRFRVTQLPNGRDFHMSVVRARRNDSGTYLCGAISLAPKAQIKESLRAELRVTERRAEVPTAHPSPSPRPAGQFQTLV
The target in assay [4] is human PD-L1 on CHO-K1 cells (W315-CHO-K1.hPro1.C11) (human) (UniProt Q9NZQ7). The assay is described as follows: FACS affinity on human PD-L1 cells, quantitative beads. Details: Bmax: unit not given here.
Chain of human PD-L1 on CHO-K1 cells (W315-CHO-K1.hPro1.C11) (human) (Q9NZQ7 19-290): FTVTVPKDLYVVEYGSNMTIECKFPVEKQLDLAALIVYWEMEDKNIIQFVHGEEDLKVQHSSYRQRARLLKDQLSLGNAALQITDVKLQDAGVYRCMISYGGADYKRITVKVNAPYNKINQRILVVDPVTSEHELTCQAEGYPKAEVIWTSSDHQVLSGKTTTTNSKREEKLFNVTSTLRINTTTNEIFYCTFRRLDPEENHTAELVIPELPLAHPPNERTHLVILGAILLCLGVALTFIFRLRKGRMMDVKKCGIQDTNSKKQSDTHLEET

Chain of OX40.his (P43489 29-214): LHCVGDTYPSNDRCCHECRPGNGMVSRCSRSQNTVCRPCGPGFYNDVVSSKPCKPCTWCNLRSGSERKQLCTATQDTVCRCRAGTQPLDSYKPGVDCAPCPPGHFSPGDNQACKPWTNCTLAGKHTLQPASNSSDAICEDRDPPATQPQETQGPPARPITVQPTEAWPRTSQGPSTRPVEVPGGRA
Chain of 4-1BB.his (Homo sapiens (Human)) (Q07011 24-186 limits assumed): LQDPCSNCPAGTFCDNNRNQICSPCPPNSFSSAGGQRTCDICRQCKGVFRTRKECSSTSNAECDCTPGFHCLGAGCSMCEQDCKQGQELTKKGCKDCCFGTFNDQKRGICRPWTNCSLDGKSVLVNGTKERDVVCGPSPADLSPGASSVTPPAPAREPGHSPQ

B1: AP3R2-1A3-z12-hIgG4 (Fc fusion, not shown: a dimerising Fc or GST)
chain: EVQLVESGGGLVQPGGSLRLSCAASGHFSNLAVNWFRQAPGKERELVAGILWSGGSTFYADSVKGRFTISRGNAENMLYLQMNSLRAEDTAVYYCNTGTNWGQGTLVTVSS
For B1, the Absorbance at 450 nm in assay [1] is 0.07; in assay [2] it was 0.07; with OX40.his, 0.06; in assay [3], 0.06.

B2: BMK9.Fc(IgG4) (Benchmark antibody 9, variable region of KN035 conjugated with human IgG4 constant region) (Fc fusion, INN chains, looked up)
VH: QVQLVESGGGLVQPGGSLRLSCAASGKMSSRRCMAWFRQAPGKERERVAKLLTTSGSTYLADSVKGRFTISRDNSKNTVYLQMNSLRAEDTAVYYCAADSFEDPTCTLVTSSGAFQYWGQGTLVTVSS
modifications: VHH-Fc IgG4
In general, Kd refers to the equilibrium constant for the complex coming apart. In assay [4], B2 displayed a Bmax of 2.8e-10 and a Kd of 0.24 nM.
